6 molecules from patent publication US20050191626, “Method for forming a stable complex comprising a transcription product and translation product of a dna encoding a desired polypeptide, a nucleic acid construct used for the method, a complex formed by the method, and screening of a functional protein and mrna or dna encoding the protein using the …” (published 2005) can be followed below.

Data set [1] concerns the target T1, DHFR-(RE)2 (DHFR fused to two tandem Tat-derived RE peptides) (UniProt P04608).
T1 sequence: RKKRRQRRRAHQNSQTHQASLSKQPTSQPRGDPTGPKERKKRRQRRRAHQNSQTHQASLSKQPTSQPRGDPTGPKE
Put plainly: EMSA. To be noted: apparent Kd; 10 mM Tris-HCl pH 8.0, 70 mM NaCl, 2 mM EDTA, 0.1% NP-40, 40 nM tRNA, 30 C.

For data set [2], the target named is T2, DHFR-(RE)3 (DHFR fused to three tandem Tat-derived RE peptides) (UniProt P04608).
T2 sequence: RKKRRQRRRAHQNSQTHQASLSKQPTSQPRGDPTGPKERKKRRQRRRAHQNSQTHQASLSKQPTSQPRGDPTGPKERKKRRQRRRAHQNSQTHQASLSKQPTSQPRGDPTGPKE
Put plainly: EMSA. To be noted: apparent Kd; 10 mM Tris-HCl pH 8.0, 70 mM NaCl, 2 mM EDTA, 0.1% NP-40, 40 nM tRNA, 30 C. (In general: A gel shift assay detects complexes by their altered migration in electrophoresis.)

Data set [3] has as its target T3, DHFR-(RE)1 (DHFR fused to one HIV Tat-derived RE peptide) (UniProt P04608).
T3 sequence: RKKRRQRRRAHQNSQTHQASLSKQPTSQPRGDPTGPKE
The data set is described as follows: EMSA. To be noted: apparent Kd; 10 mM Tris-HCl pH 8.0, 70 mM NaCl, 2 mM EDTA, 0.1% NP-40, 40 nM tRNA, 30 C.

The target in data set [4] is dihydrofolate reductase (DHFR), wild type (UniProt P0ABQ4 P0ABQ4:1-159). Put plainly: EMSA; no mobility change with increasing wild-type DHFR. To be noted: tags: poly-His (pET30a); label: 5'-32P.

In the case of “AAAAAACGAAGCUUGAUCCCGUUUGCCGGUCGAUCGCUUCGAAAAAACGAAGCUUGAUCCCGUUUGCCGGUCGAUCGCUUCG [(Apt)2 two tandem Tat aptamers via A6 linker]”, the Kd in data set [1] was less than 0.2 nM.

“AAAAAACGAAGCUUGAUCCCGUUUGCCGGUCGAUCGCUUCGAAAAAACGAAGCUUGAUCCCGUUUGCCGGUCGAUCGCUUCGAAAAAACGAAGCUUGAUCCCGUUUGCCGGUCGAUCGCUUCG [(Apt)3 three tandem Tat aptamers via A6 linkers]”: the Kd in data set [2] is less than 0.016 nM.

Take “AAAAAACGAAGCUUGAUCCCGUUUGCCGGUCGAUCGCUUCG [(Apt)1 Tat aptamer]”: the Kd in data set [3] was less than 24 nM. For the molecule AAAAAACGAAGCUUGAUCCCGUUUGCCGGUCGAUCGCUUCG (ssRNA) [(Apt)1 Tat aptamer], the binding result in data set [4] is “no binding”.

B1: (Apt)2 two tandem Tat aptamers via A6 linker (ssRNA)
RNA: AAAAAACGAAGCUUGAUCCCGUUUGCCGGUCGAUCGCUUCGAAAAAACGAAGCUUGAUCCCGUUUGCCGGUCGAUCGCUUCG
For B1, the binding result in data set [4] is “no binding”.

B2: (Apt)3 three tandem Tat aptamers via A6 linkers (ssRNA)
RNA: AAAAAACGAAGCUUGAUCCCGUUUGCCGGUCGAUCGCUUCGAAAAAACGAAGCUUGAUCCCGUUUGCCGGUCGAUCGCUUCGAAAAAACGAAGCUUGAUCCCGUUUGCCGGUCGAUCGCUUCG
With B2, in data set [4], the binding result is given as “no binding”.
